Experiment [1] has as its target T1, human αvβ3 integrin ITGAVB3 (human, UniProt P06756 31-992; P05106 27-718, limits assumed).
T1 construct: Recombinant heterodimer used as immunogen, ELISA coating and SPR ligand; also called A5B3; A5b3
The experiment can be described thus: phage ELISA, coated ITGAVB3, anti-M13-HRP, 490 nm; helper phage control.

Experiment [2] addresses T1, human αvβ3 integrin ITGAVB3. The experiment can be described thus: phage ELISA, coated ITGAVB3, anti-M13-HRP, 490 nm. Here is the method: Further, in order to perform phage ELISA, 2.5 μg/mL to […] of a target protein and a control protein were coated at 4 degrees C. using a coating buffer, and the wells were washed 3 times with 200 μL washing buffer per well. The wells were blocked with 200 μL PBS-M for two hours at room temperature. The blocking buffer was removed and the plate was washed 6 times with the washing solution. Thereafter, 100 μL of phage solution was added to the washing buffer per well and incubation was executed at room temperature for 1 to 2 hours. Then, washing was performed 6 times with washing buffer. HRP-binding anti-M13 antibody (GE healthcare) was diluted with 1:5,000 blocking buffer. 100 μL of diluted conjugate was added onto each well, and incubation was performed at room temperature for 1 hour, and washing was carried out 6 times with washing buffer. The HRP substrate solution was prepared as follows: A stock solution of OPD was prepared by dissolving 22 mg OPD (Sigma) in 100 mL of […] sodium citrate (pH 4.0), and 36 μL 30% H₂O₂ was added to 21 mL of OPL stock solution immediately before the detection step. 100 μL of substrate solution was added to each well and incubation was performed for 30 minutes at room temperature. Plates were analyzed using a micro plate reader set at 490 nm.

The target is the same in experiment [3]. Put plainly: ELISA of soluble VHH (TG1 lysate), induced at 30 C, coated ITGAVB3. A general note: An ELISA detects its analyte on a solid surface through an enzyme-linked reagent.
Experiment [4] shares this target. The experiment can be described thus: ELISA of soluble VHH (TG1 lysate), induced at 37 C, coated ITGAVB3.
The target is the same in experiment [5]. Put plainly: ELISA of soluble VHH, induced at 30 C; coating not given.
For experiment [6] the target is unchanged. The experiment can be described thus: ELISA of soluble VHH, induced at 37 C; coating not given.
For experiment [7] the target is unchanged. Put plainly: SPR, αvβ3 integrin immobilised on CMDH chip, nanobody as analyte. On the procedure: (§1) Specifically, a CMDH chip (Carboxymethyl Dextran Hydrogel Surface Sensor Chip, Reichert Technologies) coated with Dextran was mounted on an SPR equipment (Reichert SR7500DC system) to perform immobilization of αᵥβ₃ integrin antigen. Then, an analysis of the affinity of the selected antibody based on the concentration was performed.
On the technique in general: In SPR one partner is held on a chip, and binding of the other changes the refractive index at the surface.

Experiment [8] has the same target. The experiment can be described thus: SPR, αvβ3 integrin immobilised on a CMDH chip (Reichert SR7500DC), nanobody as analyte; fitted kd from the table box in the panel; the box prints no unit, s^-1 is from the head of Table 8, where the text prints this cell as 8.02(2)e4. Here is the method: as §1

Changes are numbered by the printed parent chain.

T1 sequence (P06756 31-992 limits assumed, chain 1 of 2): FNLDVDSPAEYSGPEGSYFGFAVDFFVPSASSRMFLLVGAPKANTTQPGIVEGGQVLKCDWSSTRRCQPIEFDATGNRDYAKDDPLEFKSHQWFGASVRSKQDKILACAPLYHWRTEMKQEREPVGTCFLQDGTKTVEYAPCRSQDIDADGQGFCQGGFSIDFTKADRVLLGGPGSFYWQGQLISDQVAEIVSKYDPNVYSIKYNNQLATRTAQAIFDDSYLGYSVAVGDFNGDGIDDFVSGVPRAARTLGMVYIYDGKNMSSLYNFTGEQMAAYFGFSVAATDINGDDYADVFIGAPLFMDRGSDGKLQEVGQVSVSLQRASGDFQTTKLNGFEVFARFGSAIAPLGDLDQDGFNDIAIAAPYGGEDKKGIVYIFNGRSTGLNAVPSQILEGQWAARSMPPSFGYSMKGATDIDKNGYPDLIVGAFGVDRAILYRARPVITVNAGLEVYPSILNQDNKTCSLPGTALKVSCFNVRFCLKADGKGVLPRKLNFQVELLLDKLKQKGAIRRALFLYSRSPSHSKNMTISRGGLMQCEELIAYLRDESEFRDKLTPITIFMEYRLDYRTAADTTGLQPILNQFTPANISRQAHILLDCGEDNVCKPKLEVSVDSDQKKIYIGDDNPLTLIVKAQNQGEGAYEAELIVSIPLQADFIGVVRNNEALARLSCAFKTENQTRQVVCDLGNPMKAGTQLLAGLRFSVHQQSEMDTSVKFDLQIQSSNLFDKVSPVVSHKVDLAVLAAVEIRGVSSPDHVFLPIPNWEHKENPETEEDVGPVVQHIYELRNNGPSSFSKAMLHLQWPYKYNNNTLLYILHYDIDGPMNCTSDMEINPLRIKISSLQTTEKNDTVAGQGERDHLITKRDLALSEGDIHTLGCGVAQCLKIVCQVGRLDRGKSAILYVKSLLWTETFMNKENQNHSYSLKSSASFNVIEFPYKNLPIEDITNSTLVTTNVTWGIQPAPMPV
T1 sequence (P05106 27-718 limits assumed, chain 2 of 2): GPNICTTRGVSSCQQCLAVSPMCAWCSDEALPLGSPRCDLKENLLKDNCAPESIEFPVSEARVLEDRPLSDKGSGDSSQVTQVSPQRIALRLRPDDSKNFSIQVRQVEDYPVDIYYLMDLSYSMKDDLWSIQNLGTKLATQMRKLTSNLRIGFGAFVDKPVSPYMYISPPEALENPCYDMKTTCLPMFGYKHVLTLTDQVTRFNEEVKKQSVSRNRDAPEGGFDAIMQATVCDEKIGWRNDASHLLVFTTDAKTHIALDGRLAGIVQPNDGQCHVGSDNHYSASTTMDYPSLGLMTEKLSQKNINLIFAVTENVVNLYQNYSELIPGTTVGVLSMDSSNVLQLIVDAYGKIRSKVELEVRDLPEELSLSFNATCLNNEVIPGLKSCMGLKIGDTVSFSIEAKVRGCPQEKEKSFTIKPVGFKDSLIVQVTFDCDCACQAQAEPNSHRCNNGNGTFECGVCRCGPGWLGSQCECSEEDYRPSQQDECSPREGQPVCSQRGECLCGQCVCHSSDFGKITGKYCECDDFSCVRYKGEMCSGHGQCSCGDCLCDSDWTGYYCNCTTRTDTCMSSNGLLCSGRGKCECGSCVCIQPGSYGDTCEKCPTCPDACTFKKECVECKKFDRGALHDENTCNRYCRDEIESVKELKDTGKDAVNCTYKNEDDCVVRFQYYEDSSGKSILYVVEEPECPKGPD

For the molecule M13KO7 helper phage, the OD490 in experiment [1] is 0.09.

B1: VHH-23 (VHH)
VHH: HVQLVESGGGSVQTGGSLRLSCAASGYTSSTVYMAWFRQTPGKQREGVAAIYTGGGPTYYADSVKGRFTISQDNAKNTVYLQMNTLKPEDTAMYYCAADRYVYRLVTNWYRPSFYTYWGQGTQVTVSS
notes: also called clone 23
Take B1: the OD490 in experiment [2] was 2.04; in experiment [3] it was 0.179; in experiment [4], 0.16; in experiment [5], 0.141; in experiment [6], 0.113.

B2: single-domain antibody VHH-25 containing lysin and His6 tags (VHH)
VHH: EVQLVESGGGSVQAGGSLRLSCVVSGYTCSVYDMIWYRQPPGKEREFVSLINSNGRTTYADSVKGRFTISQNNAKNTVYLQMNSLKPEDTAMYYCHAACYSPSRLNYWGQGTQVTVSS
notes: also called Nanobody #25-Lys; VHH-25-K1; not shown: C-terminal lysine tag and His6 tag with any linker
B2: in experiment [7], binding was put at a Kd of 4.64 nM, the koff turned out to be 0.000802 s⁻¹ and the kon worked out at 173000 M⁻¹ s⁻¹. The molecule further yielded a koff in experiment [8] of 0.000802 s⁻¹.

B3: VHH-25 (VHH)
VHH: B2 VHH
notes: also called clone 25
Turning to B3, the OD490 was found to be 2.03 in experiment [2]; 2.01 in experiment [3]; 2.03 in experiment [4]; 1.05 in experiment [5]; 0.193 in experiment [6].

B4: VHH-22 (VHH)
VHH: B2 VHH with E1Q, Q113L
notes: also called clone 22
As for B4, the OD490 in experiment [2] was determined as 2.04; in experiment [3], 1.98; in experiment [4], 1.98; in experiment [5] it was 1.21; in experiment [6], 0.386.

B5: VHH-20 (VHH)
VHH: DVQLVESGGGSVQPGGSLRLSCAASGYTVDNSCMAWFRQAPGKEREVVATIVTNNATSTFYADSVKGRFTVSHDNAKNTLNLQMNTLEPEDTAMYYCAADTKWIVCSRGYRYTPNWANHFNYWGQGTLVTVSS
notes: also called clone 20
In the case of B5, the OD490 in experiment [2] was 1.98; in experiment [3], 0.129; in experiment [4] it was 0.144; in experiment [5] it was 0.108; in experiment [6], 0.111.

One may read the Kd as the concentration at which binding is half-saturated. The low end stands for higher affinity, the high end for lower affinity. A word on the koff: it is the rate constant with which the complex falls apart. The term kon denotes a measure of how fast the partners come together. Read a low kon as slow association.

The record behind these values is patent US20220133913A1 (KOREA BASIC SCIENCE INSTITUTE, published 2022).
